From publication PMC10397247

Experiments:
[1] = target: T1, O6-AA; assay: two-hybrid library CCmax; conditions: mean of both orientations;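 also: natural log of median RNA to DNA barcode read ratio; higher means stronger binding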
T1 chain: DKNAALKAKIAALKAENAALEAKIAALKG

[2] = target: T2, P9-AA; assay: two-hybrid library CCmax; conditions: mean of both orientations;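 also: natural log of median RNA to DNA barcode read ratio; higher means stronger binding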
T2 chain: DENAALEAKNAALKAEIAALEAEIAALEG

[3] = target: T3, O4-AA; assay: two-hybrid library CCmax;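 also: natural log of median RNA to DNA barcode read ratio; higher means stronger binding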
T3 chain: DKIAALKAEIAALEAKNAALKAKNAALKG

[4] = target: T4, O7-AA; assay: two-hybrid library CCmax; conditions: mean of both orientations;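 also: natural log of median RNA to DNA barcode read ratio; higher means stronger binding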
T4 chain: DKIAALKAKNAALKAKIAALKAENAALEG

[5] = target: T5, P10-AA; assay: two-hybrid library CCmax; conditions: mean of both orientations;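 also: natural log of median RNA to DNA barcode read ratio; higher means stronger binding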
T5 chain: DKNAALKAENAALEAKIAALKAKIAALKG

[6] = target: T6, O8-AA; assay: two-hybrid library CCmax; conditions: mean of both orientations;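 also: natural log of median RNA to DNA barcode read ratio; higher means stronger binding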
T6 chain: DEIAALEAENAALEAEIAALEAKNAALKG

[7] = target: T7, O5-AA; assay: two-hybrid library CCmax; conditions: mean of both orientations
T7 chain: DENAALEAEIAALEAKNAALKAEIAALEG

[8] = target: T8, P8A-bS; assay: two-hybrid library CCNG1
T8 chain: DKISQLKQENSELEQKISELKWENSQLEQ

[9] = target: T9, P9A-bS; assay: two-hybrid library CCNG1
T9 chain: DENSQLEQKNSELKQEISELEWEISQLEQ

[10] = target: T10, P8A-bH; assay: two-hybrid library CCNG1
T10 chain: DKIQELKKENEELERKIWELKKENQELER

[11] = target: T11, P7A-bH; assay: two-hybrid library CCNG1
T11 chain: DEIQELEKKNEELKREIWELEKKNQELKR

[12] = target: T12, P9A-bH; assay: two-hybrid library CCNG1
T12 chain: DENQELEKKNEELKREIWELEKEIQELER

[13] = target: T13, O7-bN; assay: two-hybrid library CCNG1
T13 chain: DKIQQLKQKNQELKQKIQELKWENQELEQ

[14] = target: T14, O2-bN; assay: two-hybrid library CCNG1
T14 chain: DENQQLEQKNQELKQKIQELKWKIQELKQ

[15] = target: T15, O4-bN; assay: two-hybrid library CCNG1
T15 chain: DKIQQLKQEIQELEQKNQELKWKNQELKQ

[16] = target: T16, O5-bN; assay: two-hybrid library CCNG1
T16 chain: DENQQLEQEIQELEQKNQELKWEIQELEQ

[17] = target: T17, O6-bN; assay: two-hybrid library CCNG1
T17 chain: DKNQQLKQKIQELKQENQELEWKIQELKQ

[18] = target: T18, O9-bN; assay: two-hybrid library CCNG1
T18 chain: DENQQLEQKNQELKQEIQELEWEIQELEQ

[19] = target: T19, O3-bN; assay: two-hybrid library CCNG1
T19 chain: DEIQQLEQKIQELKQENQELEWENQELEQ

[20] = target: T20, O8-bN; assay: two-hybrid library CCNG1
T20 chain: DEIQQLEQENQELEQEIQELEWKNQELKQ

[21] = target: T21, P8mSN; assay: two-hybrid library CCNG1
T21 chain: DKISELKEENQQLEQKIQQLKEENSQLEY

[22] = target: T22, P9mSN; assay: two-hybrid library CCNG1
T22 chain: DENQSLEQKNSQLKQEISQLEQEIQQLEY

[23] = target: T23, P7mSN; assay: two-hybrid library CCNG1
T23 chain: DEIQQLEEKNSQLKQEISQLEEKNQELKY

DKIAALKAEIAALEAKNAALKAKNAALKG [O4-AA]
interaction score [1]: -0.0762 | interaction score [2]: -1.16 | interaction score [3]: -1.05 | interaction score [4]: -1.28 | interaction score [5]: -0.869 | interaction score [6]: -0.637 | interaction score [7]: -0.641

DKISQLKQENSELEQKISELKWENSQLEQ [P8A-bS]
interaction score [8]: -0.428 | interaction score [9]: -0.26

DEIQELEKKNEELKREIWELEKKNQELKR [P7A-bH]
interaction score [10]: 1.64 | interaction score [11]: -0.0377 | interaction score [12]: -0.442

DENQQLEQKNQELKQKIQELKWKIQELKQ [O2-bN]
interaction score [13]: -0.634 | interaction score [14]: -0.646 | interaction score [15]: -1.97 | interaction score [16]: -0.76 | interaction score [17]: -1.5 | interaction score [18]: 0.719 | interaction score [19]: -1.2 | interaction score [20]: 0.817

DKNQELKKEIEELERENWELEKKIQELKR [P6A-bH]
interaction score [10]: 0.924 | interaction score [11]: 1.35 | interaction score [12]: 0.983

DEIQQLEEKNSQLKQEISQLEEKNQELKY [P7mSN]
interaction score [21]: 0.927 | interaction score [22]: -0.424 | interaction score [23]: -0.219
